Measured values from PMC12589211, “Development of lisinopril radioconjugates for nuclear imaging of the angiotensin converting enzyme” (European Journal of Nuclear Medicine and Molecular Imaging, 2025).

Experiments:
[1] = in vitro; assay type: in vitro ADME; conditions: plasma
Procedure: The n-octanol/phosphate buffered saline (PBS) distribution coefficients (logD values) of the radioconjugates (20 MBq/nmol) were determined using the shake-flask method, as previously reported (Supplementary material). The binding affinity of the radioconjugates (20 MBq/nmol) to serum proteins was assessed using an ultrafiltration assay as previously reported (Supplementary Material). Methods: The plasma protein binding of the radioconjugates (20 MBq/nmol) was assessed using mouse blood plasma (Lot N°: 32321, Rockland Immunochemicals, Inc., USA,; concentration of mouse serum albumin (MSA): ⁓550 µM) and human blood plasma (Stiftung Blutspende SRK Aargau-Solothurn, Switzerland; concentration of human serum albumin (HSA): ⁓800 µM), respectively. After incubation in mouse and human blood plasma (0.3 MBq in 150 μL) for 30 min at 37 °C, the samples were cooled on ice and diluted with ice-cold PBS (150 μL). The plasma protein-bound fraction was separated from the free (plasma protein-unbound) fraction of each sample by means of Amicon centrifugal filters (Amicon Ultra, 0.5 mL, Merck Millipore; cutoff 10 kDa) by ultrafiltration using a centrifuge (14000 rcf, 30 min at 4 °C). Afterwards, the filter inserts were inverted and centrifuged again (200 rcf) for 3 min to recover the protein-bound fraction of the radioconjugates. The activities of the free radioconjugates in the filtrate, as well as in the filter insert and the plasma protein-bound radioconjugate (bound), were counted for activity separately using a γ-counter (Wallac Wizard 1480, PerkinElmer). The total activity (total) was determined as the sum of the activities in the filtrate, filter insert, and protein-bound fractions. The percentage of radioconjugate bound to MSA and HSA was calculated as Abound/Atotal*100. The results were presented as average ± SD of 3 independent experiments.

[2] = in vivo; conditions: female, mouse, iv, 3 MBq; for tissue uptake at 1 h / tissue uptake at 3 h: total radioactivity
Procedure: All applicable international, national, and/or institutional guidelines for the care and use of laboratory animals were followed and the animal experiments were carried out according to the guidelines of the Swiss Regulations for Animal Welfare. Preclinical studies were ethically approved by the Cantonal Committee of Animal Experimentation and permitted by the responsible cantonal authorities (License N° 75743). Five-week-old female Crl: CD1-Foxn^nu (CD1/nude) mice were obtained from Charles River Laboratories (Sulzfeld, Germany) and fed with standard rodent chow ad libitum. The mice were subcutaneously inoculated with HEK-ACE (8 × 10^6 cells in 100 µL PBS) on the left shoulder and approximately one week later with HEK-ACE2 cells (4–6 × 10^6 cells in 100 µL PBS) on the right shoulder. Imaging and biodistribution studies were performed 2‒4 weeks later when the xenografts reached a size of 100–300 mm^3.
Mice were intravenously injected with 3 MBq [^67Ga]Ga-DOTA-LIS-02 or 3 MBq [^67Ga]Ga-NODAGA-LIS-02 (0.5 nmol, 100 µL) or 3 MBq [^44Sc]Sc-DOTA-LIS-02 (1 nmol, 100 µL) diluted in saline containing 0.05% bovine serum albumin (BSA). The mice were sacrificed 1 h and 3 h after administration of the respective radioconjugate. Selected tissues and organs were collected, weighed and counted for activity using the γ-counter. The results were listed as a percentage of the injected activity per gram of tissue mass (% IA/g), using counts of a defined volume of the original injection solution measured at the same time to calculate decay-corrected values. Statistical analysis was performed by applying a regular one-way ANOVA test with a Tukey’s multiple comparison post‐hoc test to compare the data of the radioconjugates. A p-value of < 0.05 was considered as statistically significant (GraphPad Prism software, version 8.3.1).

[3] = physchem; assay type: physicochemical; conditions: pH 7.4, logD value (n-octanol/PBS distribution coefficient)
Procedure: The n-octanol/phosphate buffered saline (PBS) distribution coefficients (logD values) of the radioconjugates (20 MBq/nmol) were determined using the shake-flask method, as previously reported (Supplementary material). The binding affinity of the radioconjugates (20 MBq/nmol) to serum proteins was assessed using an ultrafiltration assay as previously reported (Supplementary Material). Methods: A fixed amount of the respective radioconjugate (0.5 MBq, 25 µL) was added to radio-immunoassay (RIA) tubes containing a mixture of PBS pH 7.4 (1475 µL) and n-octanol (1500 µL). After vortexing vigorously for 1 min, the tubes were centrifuged (560 rcf) for 6 min to obtain phase separation. The activity in the organic and aqueous phases was determined using a γ-counter (Wallac Wizard 1480, PerkinElmer). The distribution coefficients were expressed as the logarithm of the ratio of counts per minute (cpm) measured in the n-octanol phase to the cpm measured in the PBS pH 7.4 phase and indicated as the average of three independent measurements ± SD, each performed with five replicates.

[4] = human, Fraction bound to human blood plasma proteins
[5] = mouse, Fraction bound to mouse blood plasma proteins
[6] = CD1/nude (Crl:CD1-Foxn nu), Biodistribution, Bone
[7] = CD1/nude (Crl:CD1-Foxn nu), Biodistribution, HEK-ACE xgft
[8] = CD1/nude (Crl:CD1-Foxn nu), Biodistribution, Muscle
[9] = CD1/nude (Crl:CD1-Foxn nu), Biodistribution, Salivary glands
[10] = CD1/nude (Crl:CD1-Foxn nu), Biodistribution, Stomach
[11] = Crl:CD1-Foxn^nu (CD1/nude), Biodistribution, Blood
[12] = Crl:CD1-Foxn^nu (CD1/nude), Biodistribution, Heart
[13] = Crl:CD1-Foxn^nu (CD1/nude), Biodistribution, Kidneys
[14] = Crl:CD1-Foxn^nu (CD1/nude), Biodistribution, Lung
[15] = Crl:CD1-Foxn^nu (CD1/nude), Biodistribution, Spleen
[16] = CD1/nude (Crl:CD1-Foxn nu), 3 h
[17] = CD1/nude (Crl:CD1-Foxn nu), Biodistribution, Intestines
[18] = CD1/nude (Crl:CD1-Foxn nu), Biodistribution, Liver

SMILES | fraction unbound at 30 min, 0.1 µM [1, 4] | fraction unbound at 30 min, 0.1 µM [1, 5] | tissue uptake at 1 h ([2]; CD1/nude (Crl:CD1-Foxn nu)) | tissue uptake at 3 h ([2]; CD1/nude (Crl:CD1-Foxn nu)) | tissue uptake at 1 h [2, 6] | tissue uptake at 3 h [2, 6] | tissue uptake at 1 h [2, 7] | tissue uptake at 3 h [2, 7] | tissue uptake at 1 h [2, 8] | tissue uptake at 3 h [2, 8] | tissue uptake at 1 h [2, 9] | tissue uptake at 3 h [2, 9] | tissue uptake at 1 h [2, 10] | tissue uptake at 3 h [2, 11] | tissue uptake at 1 h [2, 12] | tissue uptake at 3 h [2, 12] | tissue uptake at 1 h [2, 13] | tissue uptake at 3 h [2, 13] | tissue uptake at 1 h [2, 14] | tissue uptake at 3 h [2, 14] | further results
O=C(O)CN1CCN(CC(=O)O)CCN(CC(=O)NCCCC[C@H](NC(=O)CCCCCCCNC(=O)NCCCC[C@H](N[C@@H](CCc2ccccc2)C(=O)O)C(=O)N2CCC[C@H]2C(=O)O)C(=O)O)CCN(CC(=O)O)CC1 [[^67Ga]Ga-DOTA-LIS-02, metal not drawn] | 0.5 ± 0.01 | 0.54 | 0.24 ± 0.01 %ID/g | 0.08 ± 0.03 %ID/g | 0.14 ± 0.01 %ID/g | < 0.05 %ID/g | 14 ± 3 %ID/g | 16 ± 1 %ID/g | 0.1 ± 0.03 %ID/g | < 0.05 %ID/g | 0.18 ± 0.04 %ID/g | < 0.05 %ID/g | 0.16 ± 0.05 %ID/g | < 0.05 %ID/g | 0.2 ± 0.06 %ID/g | < 0.05 %ID/g | 6.3 ± 1 %ID/g | 1.1 ± 0.2 %ID/g | 2.4 ± 0.7 %ID/g | 0.21 ± 0.05 %ID/g | tissue uptake at 3 h [2, 15]: 0.05 ± 0.01 %ID/g
O=C(O)CN1CCN(CC(=O)O)CCN(CC(=O)NCCCC[C@H](NC(=O)CCCCCCCNC(=O)NCCCC[C@H](N[C@@H](CCc2ccccc2)C(=O)O)C(=O)N2CCC[C@H]2C(=O)O)C(=O)O)CCN(CC(=O)O)CC1 [[^67Ga]Ga-DOTA-LIS-02] [metal not drawn] | – | – | – | – | – | – | – | – | – | – | – | – | – | – | – | – | – | – | – | – | Biodistribution, Intestines [2, 16]: 0.22 ± 0.90 %IA/g; Biodistribution, Liver [2, 16]: 0.76 ± 0.13 %IA/g; Biodistribution, Spleen ([2]; Crl:CD1-Foxn^nu (CD1/nude), 1 h): 0.51 ± 0.65 %IA/g
O=C(O)CN1CCN(CC(=O)O)CCN(C(CCC(=O)NCCCC[C@H](NC(=O)CCCCCCCNC(=O)NCCCC[C@H](N[C@@H](CCc2ccccc2)C(=O)O)C(=O)N2CCC[C@H]2C(=O)O)C(=O)O)C(=O)O)CC1 (stereo partly shown) [[^67Ga]Ga-NODAGA-LIS-02, metal not drawn] | 0.46 | 0.51 | 0.08 ± 0.01 %ID/g | < 0.05 %ID/g | < 0.05 %ID/g | < 0.05 %ID/g | 3.6 ± 0.9 %ID/g | 5.2 ± 0.5 %ID/g | 0.11 ± 0.12 %ID/g | < 0.05 %ID/g | < 0.05 %ID/g | < 0.05 %ID/g | 0.31 ± 0.18 %ID/g | < 0.05 %ID/g | < 0.05 %ID/g | < 0.05 %ID/g | 1.7 ± 0.6 %ID/g | 0.49 ± 0.13 %ID/g | 0.63 ± 0.06 %ID/g | 0.11 ± 0.04 %ID/g | logD [3]: -5.04 ± 0.09; tissue uptake at 1 h [2, 17]: 23 ± 6 %ID/g; tissue uptake at 3 h [2, 17]: 2.3 ± 1 %ID/g; tissue uptake at 1 h [2, 18]: 18 ± 1 %ID/g; tissue uptake at 3 h [2, 18]: 9.6 ± 1.2 %ID/g; tissue uptake at 3 h [2, 10]: 0.15 ± 0.1 %ID/g; tissue uptake at 1 h [2, 15]: < 0.05 %ID/g; tissue uptake at 3 h [2, 15]: < 0.05 %ID/g
